Paper PMC9709245, “The stem region of α1,6-fucosyltransferase FUT8 is required for multimer formation but not catalytic activity” (The Journal of Biological Chemistry, 2022)

B1: FUT8 stem (N-terminal part of FUT8, cytosolic region to stem region) fused with LgBiT or SmBiT (domain or fragment, human, UniProt Q9BYC5 1-108, looked up)
chain: MRPWTGSWRWIMLILFAWGTLLFYIGGHLVRDNDHPDHSSRELSKILAKLERLKQQNEDLRRMAESLRIPEGPIDQGPAIGRVRVLEEQLVKAKEQIENYKKQTRNGL
notes: human FUT8, 1st to 326th base of the cDNA: cytosolic region, transmembrane region and stem region (stem ends at Leu108); Two differently tagged copies of the same fragment; no chain bears both LgBiT and SmBiT; The 326th base is two bases past codon 108; also called FUT8 stem-LgBiT; FUT8 stem-SmBiT; source: HEK293 FUT8KO, transfected, in lysate; not shown: LgBiT (one copy; vector pBiT1.1-C …)
B2: FUT8 Y100A/R105A (enzyme, human, UniProt Q9BYC5 1-575, looked up)
chain: MRPWTGSWRWIMLILFAWGTLLFYIGGHLVRDNDHPDHSSRELSKILAKLERLKQQNEDLRRMAESLRIPEGPIDQGPAIGRVRVLEEQLVKAKEQIENAKKQTANGLGKDHEILRRRIENGAKELWFFLQSELKKLKNLEGNELQRHADEFLLDLGHHERSIMTDLYYLSQTDGAGDWREKEAKDLTELVQRRITYLQNPKDCSKAKKLVCNINKGCGYGCQLHHVVYCFMIAYGTQRTLILESQNWRYATGGWETVFRPVSETCTDRSGISTGHWSGEVKDKNVQVVELPIVDSLHPRPPYLPLAVPEDLADRLVRVHGDPAVWWVSQFVKYLIRPQPWLEKEIEEATKKLGFKHPVIGVHVRRTDKVGTEAAFHPIEEYMVHVEEHFQLLARRMQVDKKRVYLATDDPSLLKEAKTKYPNYEFISDNSISWSAGLHNRYTENSLRGVILDIHFLSQADFLVCTFSSQVCRVAYEIMQTLHPDASANFHSLDDIYYFGGQNAHNQIAIYAHQPRTADEIPMEPGDIIGVAGNHWDGYSKGVNRKLGRTGLYPSYKVREKIETVKYPTYPEAEK
notes: human FUT8 with two point mutations in Helix 2 of the stem region; also called Myc-tagged FUT8 Y100A/R105A; source: HEK293 FUT8KO, transfected, in lysate; not shown: Myc, C-terminal, kept
B3: FUT8Δhelix 1 (enzyme, human, UniProt Q9BYC5 1-575, looked up)
chain: MRPWTGSWRWIMLILFAWGTLLFYIGGHLVRDNDHRIPEGPIDQGPAIGRVRVLEEQLVKAKEQIENYKKQTRNGLGKDHEILRRRIENGAKELWFFLQSELKKLKNLEGNELQRHADEFLLDLGHHERSIMTDLYYLSQTDGAGDWREKEAKDLTELVQRRITYLQNPKDCSKAKKLVCNINKGCGYGCQLHHVVYCFMIAYGTQRTLILESQNWRYATGGWETVFRPVSETCTDRSGISTGHWSGEVKDKNVQVVELPIVDSLHPRPPYLPLAVPEDLADRLVRVHGDPAVWWVSQFVKYLIRPQPWLEKEIEEATKKLGFKHPVIGVHVRRTDKVGTEAAFHPIEEYMVHVEEHFQLLARRMQVDKKRVYLATDDPSLLKEAKTKYPNYEFISDNSISWSAGLHNRYTENSLRGVILDIHFLSQADFLVCTFSSQVCRVAYEIMQTLHPDASANFHSLDDIYYFGGQNAHNQIAIYAHQPRTADEIPMEPGDIIGVAGNHWDGYSKGVNRKLGRTGLYPSYKVREKIETVKYPTYPEAEK
notes: human FUT8; start codon to the 105th base joined to the 202nd to 1725th base of the cDNA, so that Helix 1 (Pro36-Leu67) is missing; also called Myc-tagged FUT8 Δhelix 1; source: HEK293 FUT8KO, transfected, in lysate; not shown: Myc, C-terminal, kept
B4: soluble His-FUT8 (Arg68-Lys575) (domain or fragment, human, UniProt Q9BYC5 68-575, looked up)
chain: RIPEGPIDQGPAIGRVRVLEEQLVKAKEQIENYKKQTRNGLGKDHEILRRRIENGAKELWFFLQSELKKLKNLEGNELQRHADEFLLDLGHHERSIMTDLYYLSQTDGAGDWREKEAKDLTELVQRRITYLQNPKDCSKAKKLVCNINKGCGYGCQLHHVVYCFMIAYGTQRTLILESQNWRYATGGWETVFRPVSETCTDRSGISTGHWSGEVKDKNVQVVELPIVDSLHPRPPYLPLAVPEDLADRLVRVHGDPAVWWVSQFVKYLIRPQPWLEKEIEEATKKLGFKHPVIGVHVRRTDKVGTEAAFHPIEEYMVHVEEHFQLLARRMQVDKKRVYLATDDPSLLKEAKTKYPNYEFISDNSISWSAGLHNRYTENSLRGVILDIHFLSQADFLVCTFSSQVCRVAYEIMQTLHPDASANFHSLDDIYYFGGQNAHNQIAIYAHQPRTADEIPMEPGDIIGVAGNHWDGYSKGVNRKLGRTGLYPSYKVREKIETVKYPTYPEAEK
notes: human FUT8, soluble form from Arg68 to the C terminus (Lys575); Plasmid pcDNA-IH/FUT8; also called purified soluble FUT8; recombinant soluble FUT8; source: COS7, transfected, purified from the culture medium (Ni2+ column, NAP-5 desalting)
B5: FUT8Δstem-GSx22 (enzyme, human)
chain: MRPWTGSWRWIMLILFAWGTLLFYIGGHLGSGSGSGSGSGSGSGSGSGSGSGSGSGSGSGSGSGSGSGSGSGSGKDHEILRRRIENGAKELWFFLQSELKKLKNLEGNELQRHADEFLLDLGHHERSIMTDLYYLSQTDGAGDWREKEAKDLTELVQRRITYLQNPKDCSKAKKLVCNINKGCGYGCQLHHVVYCFMIAYGTQRTLILESQNWRYATGGWETVFRPVSETCTDRSGISTGHWSGEVKDKNVQVVELPIVDSLHPRPPYLPLAVPEDLADRLVRVHGDPAVWWVSQFVKYLIRPQPWLEKEIEEATKKLGFKHPVIGVHVRRTDKVGTEAAFHPIEEYMVHVEEHFQLLARRMQVDKKRVYLATDDPSLLKEAKTKYPNYEFISDNSISWSAGLHNRYTENSLRGVILDIHFLSQADFLVCTFSSQVCRVAYEIMQTLHPDASANFHSLDDIYYFGGQNAHNQIAIYAHQPRTADEIPMEPGDIIGVAGNHWDGYSKGVNRKLGRTGLYPSYKVREKIETVKYPTYPEAEK
notes: human FUT8, start codon to the 87th base of the cDNA; the stem region Val30-Leu108 is replaced; glycine-serine repeat of 44 amino acids; human FUT8, 325th to 1725th base of the cDNA (coiled-coil domain to the C terminus); Anti-Myc blots show two bands (full size and about 50 kDa); also called Myc-tagged FUT8Δstem-GSx22; source: HEK293 FUT8KO, transfected, in lysate; not shown: Myc, C-terminal, …
B6: FUT8Δhelix 2 (enzyme, human, UniProt Q9BYC5 1-575, looked up)
chain: MRPWTGSWRWIMLILFAWGTLLFYIGGHLVRDNDHPDHSSRELSKILAKLERLKQQNEDLRRMAESLRIPEGPIDQGPNGLGKDHEILRRRIENGAKELWFFLQSELKKLKNLEGNELQRHADEFLLDLGHHERSIMTDLYYLSQTDGAGDWREKEAKDLTELVQRRITYLQNPKDCSKAKKLVCNINKGCGYGCQLHHVVYCFMIAYGTQRTLILESQNWRYATGGWETVFRPVSETCTDRSGISTGHWSGEVKDKNVQVVELPIVDSLHPRPPYLPLAVPEDLADRLVRVHGDPAVWWVSQFVKYLIRPQPWLEKEIEEATKKLGFKHPVIGVHVRRTDKVGTEAAFHPIEEYMVHVEEHFQLLARRMQVDKKRVYLATDDPSLLKEAKTKYPNYEFISDNSISWSAGLHNRYTENSLRGVILDIHFLSQADFLVCTFSSQVCRVAYEIMQTLHPDASANFHSLDDIYYFGGQNAHNQIAIYAHQPRTADEIPMEPGDIIGVAGNHWDGYSKGVNRKLGRTGLYPSYKVREKIETVKYPTYPEAEK
notes: human FUT8; start codon to the 234th base joined to the 316th to 1725th base of the cDNA, so that Helix 2 (Ala79-Arg105) is missing; also called Myc-tagged FUT8 Δhelix 2; source: HEK293 FUT8KO, transfected, in lysate; not shown: Myc, C-terminal, kept
B7: FUT8Δstem-GSx40 (enzyme, human)
chain: MRPWTGSWRWIMLILFAWGTLLFYIGGHLGSGSGSGSGSGSGSGSGSGSGSGSGSGSGSGSGSGSGSGSGSGSGSGSGSGSGSGSGSGSGSGSGSGSGSGSGSGSGSGSGKDHEILRRRIENGAKELWFFLQSELKKLKNLEGNELQRHADEFLLDLGHHERSIMTDLYYLSQTDGAGDWREKEAKDLTELVQRRITYLQNPKDCSKAKKLVCNINKGCGYGCQLHHVVYCFMIAYGTQRTLILESQNWRYATGGWETVFRPVSETCTDRSGISTGHWSGEVKDKNVQVVELPIVDSLHPRPPYLPLAVPEDLADRLVRVHGDPAVWWVSQFVKYLIRPQPWLEKEIEEATKKLGFKHPVIGVHVRRTDKVGTEAAFHPIEEYMVHVEEHFQLLARRMQVDKKRVYLATDDPSLLKEAKTKYPNYEFISDNSISWSAGLHNRYTENSLRGVILDIHFLSQADFLVCTFSSQVCRVAYEIMQTLHPDASANFHSLDDIYYFGGQNAHNQIAIYAHQPRTADEIPMEPGDIIGVAGNHWDGYSKGVNRKLGRTGLYPSYKVREKIETVKYPTYPEAEK
notes: human FUT8, start codon to the 87th base of the cDNA; the stem region Val30-Leu108 is replaced; glycine-serine repeat of 80 amino acids; human FUT8, 325th to 1725th base of the cDNA (coiled-coil domain to the C terminus); Anti-Myc blots show two bands (full size and about 50 kDa); also called Myc-tagged FUT8Δstem-GSx40; source: HEK293 FUT8KO, transfected, in lysate; not shown: Myc, C-terminal, …

Assays:
[1] = molecular target: the molecule itself; experiment: split reporter (BiFC, NanoBiT); NanoBiT; LgBiT and SmBiT fusions coexpressed in HEK293 FUT8KO cells; 0.6 μg of lysate protein (TBS, 1% Triton X-100) with Nano-Glo Live Cell Substrate at RT; luminescence relative to empty-vector (Mock) sample
[2] = molecular target: T1, alpha-1,6-fucosyltransferase FUT8 WT (human, UniProt Q9BYC5 1-575); experiment: co-IP; lysates (TBS, 1% Triton X-100) of HEK293 FUT8KO cells coexpressing Myc-tagged FUT8 WT or mutant with 3xFLAG-FUT8 WT; anti-DYKDDDDK antibody magnetic beads, 4 °C overnight; anti-Myc blot; IP signal divided by input, relative to FUT8 WT; conditions: partners not purified
T1 construct: No chain bears both Myc and 3xFLAG; also called Myc-FUT8; Myc-tagged FUT8; source: HEK293 FUT8KO, transfected, in lysate; not shown: Myc (copy from pcDNA6-mycHisA), C-terminal, kept; His tag (from the vector pcDNA6-mycHisA); 3xFLAG (other copy; from pME-3xFLAG), C-terminal, kept
T1 sequence (looked up): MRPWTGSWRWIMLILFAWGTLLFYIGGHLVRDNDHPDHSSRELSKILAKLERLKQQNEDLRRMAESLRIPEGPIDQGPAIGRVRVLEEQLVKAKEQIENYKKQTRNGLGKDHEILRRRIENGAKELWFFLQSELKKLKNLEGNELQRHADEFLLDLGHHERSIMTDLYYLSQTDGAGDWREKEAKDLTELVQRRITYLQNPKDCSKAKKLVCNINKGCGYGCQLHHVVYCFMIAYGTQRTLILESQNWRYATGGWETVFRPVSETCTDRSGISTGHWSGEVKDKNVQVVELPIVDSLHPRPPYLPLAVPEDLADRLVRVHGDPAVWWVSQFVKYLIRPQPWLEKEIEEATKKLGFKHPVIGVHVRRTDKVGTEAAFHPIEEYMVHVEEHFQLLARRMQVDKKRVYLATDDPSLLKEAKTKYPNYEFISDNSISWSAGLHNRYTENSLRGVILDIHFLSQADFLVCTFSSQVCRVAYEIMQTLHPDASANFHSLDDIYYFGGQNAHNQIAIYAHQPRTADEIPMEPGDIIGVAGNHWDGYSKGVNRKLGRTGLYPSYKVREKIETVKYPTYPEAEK

[3] = molecular target: the molecule itself; experiment: native gel or EMSA; Blue Native PAGE (4% to 16%) of purified soluble His-FUT8, Western blot with anti-FUT8

Binder | coprecipitated anti-Myc signal (IP/input) relative to FUT8 WT [2] | other results
B1 |  | relative luminescence (NanoBiT, relative to Mock) [1]: 165 relative to Mock
B2 | 1.56 relative to FUT8 WT | 
B3 | 0.0934 relative to FUT8 WT | 
B4 |  | binding result [3]: binds
B5 | 0.127 relative to FUT8 WT | 
B6 | 0.5 relative to FUT8 WT | 
B7 | 0.122 relative to FUT8 WT | 
